This is an account of results in patent US20250195647A1 (CORBUS PHARMACEUTICALS, published 2025).

Bounds are passed on as bounds.

Test [1] has as its target T1, integrin αVβ8 (murine) (murine, UniProt P43406 31-988; Q0VBD0 43-681).
T1 construct: Integrin heterodimer injected as analyte in SPR; also called mαVβ8
The test is described as follows: SPR, mAb captured on anti-Fc CM5 chip, integrin injected, 37 C, 1:1 fit. How it is done: (§1) Antibodies were assessed by surface plasmon resonance (SPR) for the ability to bind to integrin heterodimers. mAbs were immobilized on an anti-Fc CM5 sensor chip, and integrins (0.39-50 nM for and 200 nM for others) were injected at a flow rate of […] for a contact time of 180 s and dissociation time of 400 s, at 37° C. Data were fit (grey lines) to a 1:1 antibody:ligand binding model to determine Kd.
(In general: In SPR one partner is held on a chip, and binding of the other changes the refractive index at the surface.)

Test [2] deals with T2, integrin αVβ8 (human) (human, UniProt P06756 31-992; P26012 43-684).
T2 construct: Integrin heterodimer injected as analyte in SPR; also called avb8
T2 sequence (P06756 31-992, chain 1 of 2): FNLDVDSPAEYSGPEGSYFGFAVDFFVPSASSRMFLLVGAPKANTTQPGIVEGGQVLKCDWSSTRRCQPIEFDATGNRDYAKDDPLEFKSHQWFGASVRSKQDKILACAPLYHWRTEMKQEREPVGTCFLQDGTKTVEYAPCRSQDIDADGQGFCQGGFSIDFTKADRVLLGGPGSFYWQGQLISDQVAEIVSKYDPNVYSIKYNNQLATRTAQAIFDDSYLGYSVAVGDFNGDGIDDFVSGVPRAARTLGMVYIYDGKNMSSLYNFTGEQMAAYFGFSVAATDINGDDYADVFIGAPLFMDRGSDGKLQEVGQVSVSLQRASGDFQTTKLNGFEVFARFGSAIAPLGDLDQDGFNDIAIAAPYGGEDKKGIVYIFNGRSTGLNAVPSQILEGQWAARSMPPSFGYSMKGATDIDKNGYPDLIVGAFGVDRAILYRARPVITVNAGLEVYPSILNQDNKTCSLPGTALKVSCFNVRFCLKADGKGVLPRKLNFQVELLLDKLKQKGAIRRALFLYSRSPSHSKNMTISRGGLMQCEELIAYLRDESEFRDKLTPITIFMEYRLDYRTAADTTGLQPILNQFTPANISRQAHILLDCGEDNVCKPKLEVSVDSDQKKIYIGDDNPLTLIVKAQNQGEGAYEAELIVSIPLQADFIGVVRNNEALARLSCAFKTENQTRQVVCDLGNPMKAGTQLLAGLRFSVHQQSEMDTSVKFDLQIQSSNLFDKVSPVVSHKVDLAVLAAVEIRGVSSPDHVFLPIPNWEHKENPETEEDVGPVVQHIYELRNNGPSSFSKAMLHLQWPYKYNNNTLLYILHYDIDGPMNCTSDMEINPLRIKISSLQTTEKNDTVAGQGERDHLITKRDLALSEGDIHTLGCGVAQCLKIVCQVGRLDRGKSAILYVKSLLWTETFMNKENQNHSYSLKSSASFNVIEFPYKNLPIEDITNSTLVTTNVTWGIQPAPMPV
T2 sequence (P26012 43-684, chain 2 of 2): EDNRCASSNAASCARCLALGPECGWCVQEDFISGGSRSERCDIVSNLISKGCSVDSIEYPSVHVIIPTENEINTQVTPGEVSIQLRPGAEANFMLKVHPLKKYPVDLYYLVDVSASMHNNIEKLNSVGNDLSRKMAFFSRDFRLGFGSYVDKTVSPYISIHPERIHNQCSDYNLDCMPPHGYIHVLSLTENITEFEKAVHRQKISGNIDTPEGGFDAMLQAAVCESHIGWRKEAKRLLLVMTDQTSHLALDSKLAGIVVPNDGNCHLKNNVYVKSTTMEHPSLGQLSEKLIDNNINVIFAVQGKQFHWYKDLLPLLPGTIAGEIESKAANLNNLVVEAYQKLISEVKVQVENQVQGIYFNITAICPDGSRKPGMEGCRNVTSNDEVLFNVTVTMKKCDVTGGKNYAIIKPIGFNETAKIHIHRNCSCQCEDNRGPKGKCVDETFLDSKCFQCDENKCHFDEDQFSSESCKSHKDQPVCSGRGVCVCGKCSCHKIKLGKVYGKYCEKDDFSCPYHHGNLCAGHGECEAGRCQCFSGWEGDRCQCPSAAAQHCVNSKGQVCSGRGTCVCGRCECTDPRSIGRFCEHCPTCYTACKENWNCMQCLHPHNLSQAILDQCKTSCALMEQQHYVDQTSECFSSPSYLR
The description is as above. The method, then: as §1

Test [3] addresses T3, αvβ8 expressed on the surface of LN229 cells (UniProt P06756 31-1048; P26012 43-769).
T3 construct: whole, on cells; also called avb8 on LN229 cells
Kind of test: cell-based competition (adhesion) assay: LN229 cells expressing αvβ8 on plate-immobilized L-TGFβ with increasing antibody, bound cells quantified by Crystal Violet, 4-parameter fit. How it is done:
(§2) Exemplary antibodies of the disclosure were evaluated for their ability to block binding of the latent form of TGFβ (L-TGFβ) to in a cell-based competition assay. TGFβ is ubiquitously expressed in the latent form and L-TGFβ promotes an immune suppressive phenotype within the tumor microenvironment. L-TGFβ was immobilized on a polystyrene plate and incubated with LN229 cells expressing and increasing concentrations of muAb1 for 30 mins at 37° C. Bound LN229 cells were quantified by Crystal Violet. Data were fit to a 4-parameter displacement curve to determine IC₅₀. […] The affinities of the two antibodies are similar as measured in this assay.

Test [4] has as its target T3, αvβ8 expressed on the surface of LN229 …. The test is described as follows: cell-based competition (adhesion) assay: LN229 cells expressing αvβ8 on plate-immobilized L-TGFβ, Crystal Violet readout. The method, then: as §2

T3 sequence (P06756 31-1048, chain 1 of 2): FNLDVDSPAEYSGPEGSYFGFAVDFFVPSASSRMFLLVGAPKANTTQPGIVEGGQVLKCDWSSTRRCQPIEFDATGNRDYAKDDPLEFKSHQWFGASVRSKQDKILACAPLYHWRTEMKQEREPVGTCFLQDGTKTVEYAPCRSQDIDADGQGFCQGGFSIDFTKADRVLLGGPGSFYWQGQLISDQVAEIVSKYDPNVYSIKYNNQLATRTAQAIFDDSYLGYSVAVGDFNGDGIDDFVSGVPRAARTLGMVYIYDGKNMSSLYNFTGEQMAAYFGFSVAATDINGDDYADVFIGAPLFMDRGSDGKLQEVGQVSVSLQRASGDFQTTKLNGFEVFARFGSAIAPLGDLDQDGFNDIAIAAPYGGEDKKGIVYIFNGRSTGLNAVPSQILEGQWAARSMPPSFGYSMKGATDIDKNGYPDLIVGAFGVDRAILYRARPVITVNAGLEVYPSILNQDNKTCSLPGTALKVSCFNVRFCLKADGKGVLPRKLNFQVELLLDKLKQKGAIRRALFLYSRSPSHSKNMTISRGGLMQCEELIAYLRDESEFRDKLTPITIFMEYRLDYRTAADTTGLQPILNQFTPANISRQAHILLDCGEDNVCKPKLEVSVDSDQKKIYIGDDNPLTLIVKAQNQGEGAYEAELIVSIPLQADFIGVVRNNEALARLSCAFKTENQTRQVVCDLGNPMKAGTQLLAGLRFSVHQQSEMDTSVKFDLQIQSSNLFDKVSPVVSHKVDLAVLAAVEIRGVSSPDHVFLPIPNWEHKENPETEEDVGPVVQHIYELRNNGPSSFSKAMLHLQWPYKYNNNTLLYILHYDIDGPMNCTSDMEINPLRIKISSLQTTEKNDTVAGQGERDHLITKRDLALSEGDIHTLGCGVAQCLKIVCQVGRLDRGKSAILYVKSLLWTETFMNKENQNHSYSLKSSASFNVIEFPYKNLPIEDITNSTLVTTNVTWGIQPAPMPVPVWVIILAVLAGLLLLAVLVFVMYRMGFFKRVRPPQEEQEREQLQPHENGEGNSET
T3 sequence (P26012 43-769, chain 2 of 2): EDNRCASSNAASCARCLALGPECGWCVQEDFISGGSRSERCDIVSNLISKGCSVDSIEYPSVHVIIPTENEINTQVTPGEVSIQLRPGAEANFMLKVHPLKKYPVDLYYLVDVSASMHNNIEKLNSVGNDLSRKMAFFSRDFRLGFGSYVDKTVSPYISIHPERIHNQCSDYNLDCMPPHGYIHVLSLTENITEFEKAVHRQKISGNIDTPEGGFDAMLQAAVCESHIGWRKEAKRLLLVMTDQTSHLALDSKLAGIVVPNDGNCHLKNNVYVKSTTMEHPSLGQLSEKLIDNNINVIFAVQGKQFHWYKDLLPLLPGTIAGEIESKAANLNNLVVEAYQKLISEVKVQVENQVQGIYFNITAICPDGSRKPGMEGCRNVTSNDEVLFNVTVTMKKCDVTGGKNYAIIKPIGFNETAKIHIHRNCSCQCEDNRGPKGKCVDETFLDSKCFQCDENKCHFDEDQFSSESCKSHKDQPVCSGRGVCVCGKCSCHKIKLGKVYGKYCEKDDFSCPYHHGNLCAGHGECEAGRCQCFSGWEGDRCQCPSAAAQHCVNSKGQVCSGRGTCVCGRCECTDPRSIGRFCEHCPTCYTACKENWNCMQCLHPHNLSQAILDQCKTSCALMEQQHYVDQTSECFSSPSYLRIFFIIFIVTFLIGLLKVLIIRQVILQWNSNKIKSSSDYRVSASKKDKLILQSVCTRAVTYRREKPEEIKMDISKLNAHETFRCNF
T1 sequence (P43406 31-988, chain 1 of 2): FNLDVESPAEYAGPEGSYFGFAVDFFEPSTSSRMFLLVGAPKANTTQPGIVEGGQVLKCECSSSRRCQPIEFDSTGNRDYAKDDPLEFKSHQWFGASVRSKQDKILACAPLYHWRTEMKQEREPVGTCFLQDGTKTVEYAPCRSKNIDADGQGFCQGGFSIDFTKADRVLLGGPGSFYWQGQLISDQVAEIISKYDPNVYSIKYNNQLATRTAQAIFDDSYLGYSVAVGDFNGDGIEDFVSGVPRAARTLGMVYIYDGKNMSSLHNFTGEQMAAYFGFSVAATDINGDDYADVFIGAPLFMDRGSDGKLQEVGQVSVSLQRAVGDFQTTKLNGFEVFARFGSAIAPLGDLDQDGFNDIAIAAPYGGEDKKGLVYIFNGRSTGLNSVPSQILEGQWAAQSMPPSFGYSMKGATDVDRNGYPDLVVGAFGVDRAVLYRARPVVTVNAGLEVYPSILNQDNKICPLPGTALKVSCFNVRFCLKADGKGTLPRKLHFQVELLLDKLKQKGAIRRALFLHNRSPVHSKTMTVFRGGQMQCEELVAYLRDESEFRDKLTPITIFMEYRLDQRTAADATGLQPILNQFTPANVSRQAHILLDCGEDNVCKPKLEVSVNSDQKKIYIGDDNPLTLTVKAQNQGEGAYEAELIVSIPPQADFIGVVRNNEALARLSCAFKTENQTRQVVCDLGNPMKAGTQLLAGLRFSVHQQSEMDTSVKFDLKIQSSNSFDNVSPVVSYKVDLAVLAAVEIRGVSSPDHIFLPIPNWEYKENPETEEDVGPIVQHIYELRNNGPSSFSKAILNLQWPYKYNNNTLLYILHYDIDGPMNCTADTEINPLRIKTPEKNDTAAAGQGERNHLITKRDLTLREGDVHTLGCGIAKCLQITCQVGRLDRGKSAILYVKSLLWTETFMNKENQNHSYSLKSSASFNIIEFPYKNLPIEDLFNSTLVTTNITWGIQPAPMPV
T1 sequence (Q0VBD0 43-681, chain 2 of 2): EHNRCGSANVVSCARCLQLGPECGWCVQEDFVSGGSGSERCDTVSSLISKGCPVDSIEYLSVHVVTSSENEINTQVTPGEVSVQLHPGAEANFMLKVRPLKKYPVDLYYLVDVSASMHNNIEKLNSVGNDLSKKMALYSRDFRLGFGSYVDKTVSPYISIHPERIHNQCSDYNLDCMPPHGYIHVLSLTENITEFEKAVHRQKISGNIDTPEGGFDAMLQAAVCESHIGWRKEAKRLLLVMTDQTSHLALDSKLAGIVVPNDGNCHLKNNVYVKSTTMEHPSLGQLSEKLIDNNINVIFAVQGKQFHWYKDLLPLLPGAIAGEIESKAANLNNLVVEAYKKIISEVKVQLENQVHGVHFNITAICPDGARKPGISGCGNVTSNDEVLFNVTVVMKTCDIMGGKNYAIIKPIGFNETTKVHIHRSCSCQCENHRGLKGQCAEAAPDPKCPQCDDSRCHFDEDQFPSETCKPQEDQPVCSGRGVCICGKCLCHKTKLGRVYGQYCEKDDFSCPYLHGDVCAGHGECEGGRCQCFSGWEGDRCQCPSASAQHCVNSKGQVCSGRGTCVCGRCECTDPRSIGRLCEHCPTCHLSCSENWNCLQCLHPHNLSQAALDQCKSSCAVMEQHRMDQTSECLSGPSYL

B1: huAb1 (antibody, V domains shown)
VH: QIQLVQSGSELKKPGASVKVSCKASGYTFTKYSMHWVRQAPGQGLEWMARINTETGNPTYADGFRGRFVVSLDTSVSTAYLQISSLKAEDTAVYYCAIFYYGRDTWGQGTTVTVSS
VL: DIVMTQSPDSLAVSLGERATINCKSSQSLLHSRSRKNYLAWYQQKPGQPPKLLIYWASTRESGVPDRFSGSGSGTDFTLTISSLQAEDVAVYYCKQSYNLLSFGQGTKLEIK
notes: also called anti-αvβ8 antibody
Turning to B1, the Kd in test [1] and in test [2] was under 5 nM throughout. Further, the IC50 (as a rule, the midpoint of a concentration-inhibition curve) in test [3] is under 5 nM. In test [4], the “IC50 (read off the curve)” value was about 4 nM.

B2: muAb1 (antibody, V domains shown)
VH: QIQLVQSGSELKKPGASVKVSCKASGYTFTKYSMHWVRQAPGQGLEWMARINTETGNPTYADGFRGRFVVSLDTSVSTAYLQISSLKAEDTAVYYCAIFYYGRDTWGQGTTVTVSS
VL: DIVMTQSPDSLAVSLGERATINCKSSQSLLHSRSRKNYLAWYQQKPGQPPKLLIYWASTRESGVPDRFSGSGSGTDFTLTISSLQAEDVAVYYCKQSYNLLSFGQGTKLEIK
notes: also called murine-human hybrid monoclonal anti-αVβ8 antibody; murine compatible version of huAb1
In the case of B2, the Kd in test [1] and in test [2] was under 15 nM throughout. The molecule also gave a 50% inhibitory concentration (IC50) in test [3] of under 5 nM. Further, the “IC50 (read off the curve)” value in test [4] is about 1 nM.
